We go through 125 sequences from the supplement of paper PMC9112550, “Optimization of the antimicrobial peptide Bac7 by deep mutational scanning” (BMC Biology, 2022).
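Further: peptides expressed intracellularly from a pBAD plasmid library in pooled LB shake-flask culture, induced with 0.3% L-arabinose, DNA abundance read by NGS, three biological replicates, DESeq2 with apeglm shrinkage.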

This data set concerns Escherichia coli TOP10. Nature of the data set: shrunken log2 fold change of peptide-encoding DNA abundance (4.5 h post-induction vs induction); higher = less antimicrobial activity (less host growth inhibition). Particulars: time post-induction: 4.5 h; library: site-saturation at positions 5, 18, 19, 20.
Consider RRIRFRPPRLPRPRPRPCRAPRP, for which the “shrunken log2 fold change” value was 0.0454.

On to RRIRGRPPRLPRPRPRPMVQPRP, for which the “shrunken log2 fold change” value was 0.0883.

RRIRHRPPRLPRPRPRPDVCPRP: the “shrunken log2 fold change” value is -0.258.

As to RRIRSRPPRLPRPRPRPFGYPRP, the “shrunken log2 fold change” value was -0.179. For RRIRKRPPRLPRPRPRPQHPPRP, the “shrunken log2 fold change” value came to 0.105. With RRIRYRPPRLPRPRPRPCTPPRP the figure was -1.14; with RRIRQRPPRLPRPRPRPPKHPRP, -0.142; with RRIRPRPPRLPRPRPRPAPMPRP, 0.284. For the sequence RRIRIRPPRLPRPRPRPGTSPRP, the “shrunken log2 fold change” value is -0.0281. For RRIRFRPPRLPRPRPRPVKLPRP the value was 0.294. For RRIRGRPPRLPRPRPRPKKQPRP the value was 0.0981.

Turning to RRIRERPPRLPRPRPRPPGSPRP, the “shrunken log2 fold change” value was -0.0206. RRIRARPPRLPRPRPRPPDCPRP: the “shrunken log2 fold change” value came out at 0.56. Consider RRIRPRPPRLPRPRPRPTMTPRP, for which the “shrunken log2 fold change” value was 0.0633. As for RRIRHRPPRLPRPRPRPMYIPRP, the “shrunken log2 fold change” value was -0.0294.

Regarding RRIRHRPPRLPRPRPRPMFHPRP, the “shrunken log2 fold change” value was -0.509. With RRIRCRPPRLPRPRPRPDALPRP, the “shrunken log2 fold change” value was found to be 0.0862. With RRIRERPPRLPRPRPRPILSPRP the figure was -0.316; with RRIRRRPPRLPRPRPRPLQGPRP, 0.0475; with RRIRDRPPRLPRPRPRPWIHPRP, -0.0487. As for RRIRKRPPRLPRPRPRPHSKPRP, the “shrunken log2 fold change” value came out at 0.0726. With RRIRPRPPRLPRPRPRPIEDPRP, the “shrunken log2 fold change” value was -0.0617.

For the sequence RRIRVRPPRLPRPRPRPTLYPRP, the “shrunken log2 fold change” value is -0.155. Consider RRIRHRPPRLPRPRPRPGKQPRP, for which the “shrunken log2 fold change” value is -0.173. For RRIRARPPRLPRPRPRPSQSPRP the value was 0.0538; for RRIRCRPPRLPRPRPRPQICPRP, 0.0827. Consider RRIRVRPPRLPRPRPRPAPYPRP, for which the “shrunken log2 fold change” value is -0.00665.

Turning to RRIRYRPPRLPRPRPRPRRRPRP, the “shrunken log2 fold change” value was -0.0051. With RRIRERPPRLPRPRPRPLVKPRP the figure was -0.575. With RRIRKRPPRLPRPRPRPVSLPRP, the “shrunken log2 fold change” value came out at 0.0505.

Turning to RRIRWRPPRLPRPRPRPFFCPRP, the “shrunken log2 fold change” value came out at 0.104.

In the case of RRIRWRPPRLPRPRPRPVYAPRP, the “shrunken log2 fold change” value came out at 0.31. Turning to RRIRLRPPRLPRPRPRPQETPRP, the “shrunken log2 fold change” value stood at 0.0529. As to RRIRRRPPRLPRPRPRPAVKPRP, the “shrunken log2 fold change” value came out at 0.0474. With RRIRNRPPRLPRPRPRPVEQPRP, the “shrunken log2 fold change” value stood at 0.0207. For RRIRERPPRLPRPRPRPEYYPRP the value was -0.00813. In the case of RRIRVRPPRLPRPRPRPYFNPRP, the “shrunken log2 fold change” value is -0.729. With RRIRTRPPRLPRPRPRPAPHPRP, the “shrunken log2 fold change” value was 0.22. With RRIRNRPPRLPRPRPRPGEQPRP the figure was 0.137; with RRIRFRPPRLPRPRPRPRVQPRP, 0.263; with RRIRNRPPRLPRPRPRPCWRPRP, -0.174. With RRIRVRPPRLPRPRPRPVDHPRP the figure was -0.464; with RRIRMRPPRLPRPRPRPCTKPRP, 2.28. For RRIRTRPPRLPRPRPRPDHVPRP the value was -0.0634; for RRIRSRPPRLPRPRPRPPFCPRP, 0.135; for RRIRWRPPRLPRPRPRPKCFPRP, -0.076. For RRIRVRPPRLPRPRPRPWNKPRP, the “shrunken log2 fold change” value is -0.635. For RRIRFRPPRLPRPRPRPGLGPRP the value was 0.603.

For RRIRARPPRLPRPRPRPVFPPRP, the “shrunken log2 fold change” value stood at 0.207. Consider RRIRKRPPRLPRPRPRPGQRPRP, for which the “shrunken log2 fold change” value was determined as 0.328.

As for RRIRTRPPRLPRPRPRPAQLPRP, the “shrunken log2 fold change” value is -0.216. For RRIRARPPRLPRPRPRPGDCPRP the value was 0.366. With RRIRQRPPRLPRPRPRPELVPRP the figure was -0.142; with RRIRHRPPRLPRPRPRPMCAPRP, -0.446; with RRIRNRPPRLPRPRPRPGPMPRP, -0.0257. In the case of RRIRHRPPRLPRPRPRPTWPPRP, the “shrunken log2 fold change” value turned out to be 0.25. For RRIRTRPPRLPRPRPRPYTRPRP the value was -0.0177; for RRIRERPPRLPRPRPRPCHVPRP, -0.0775; for RRIRFRPPRLPRPRPRPPGMPRP, 0.461. For RRIRNRPPRLPRPRPRPLEEPRP, the “shrunken log2 fold change” value turned out to be 0.216. Regarding RRIRARPPRLPRPRPRPTLVPRP, the “shrunken log2 fold change” value was found to be 0.562. For RRIRVRPPRLPRPRPRPKRTPRP, the “shrunken log2 fold change” value was found to be 0.0795. On to RRIRIRPPRLPRPRPRPDQGPRP, for which the “shrunken log2 fold change” value stood at 0.0651. Regarding RRIRTRPPRLPRPRPRPELGPRP, the “shrunken log2 fold change” value stood at 0.248. Turning to RRIRYRPPRLPRPRPRPWYNPRP, the “shrunken log2 fold change” value was -0.764. For the sequence RRIRKRPPRLPRPRPRPNNYPRP, the “shrunken log2 fold change” value was -0.259. For RRIRGRPPRLPRPRPRPSPHPRP, the “shrunken log2 fold change” value was 0.435.

Take RRIRMRPPRLPRPRPRPNRYPRP: the “shrunken log2 fold change” value was found to be 0.166. With RRIRSRPPRLPRPRPRPYILPRP the figure was -0.69; with RRIRNRPPRLPRPRPRPNLCPRP, -0.0109.

As to RRIRYRPPRLPRPRPRPYEKPRP, the “shrunken log2 fold change” value was -0.117. With RRIRKRPPRLPRPRPRPLQRPRP the figure was 0.331; with RRIRIRPPRLPRPRPRPNVFPRP, -0.27; with RRIRSRPPRLPRPRPRPMSMPRP, -0.293. RRIRDRPPRLPRPRPRPEVWPRP: the “shrunken log2 fold change” value was 1.75.

Consider RRIRRRPPRLPRPRPRPIMNPRP, for which the “shrunken log2 fold change” value was -0.347. With RRIRNRPPRLPRPRPRPCGPPRP, the “shrunken log2 fold change” value was -0.0549.

Consider RRIRPRPPRLPRPRPRPQCHPRP, for which the “shrunken log2 fold change” value was -0.457. Consider RRIRIRPPRLPRPRPRPHWQPRP, for which the “shrunken log2 fold change” value was 1.4. For RRIRQRPPRLPRPRPRPYSFPRP the value was -0.141; for RRIRWRPPRLPRPRPRPALWPRP, 0.53. As for RRIRGRPPRLPRPRPRPVRTPRP, the “shrunken log2 fold change” value amounted to 1.3. Take RRIRYRPPRLPRPRPRPLSRPRP: the “shrunken log2 fold change” value was -0.155.

Take RRIRCRPPRLPRPRPRPGSYPRP: the “shrunken log2 fold change” value is -0.525. With RRIRRRPPRLPRPRPRPDAVPRP the figure was 0.462; with RRIRVRPPRLPRPRPRPPTGPRP, 0.245. For RRIRGRPPRLPRPRPRPEMRPRP the value was 2.35; for RRIRPRPPRLPRPRPRPFLSPRP, -0.312.

For the sequence RRIRVRPPRLPRPRPRPQIAPRP, the “shrunken log2 fold change” value is -0.0465.

On to RRIRLRPPRLPRPRPRPLIVPRP, for which the “shrunken log2 fold change” value is -0.131. For the sequence RRIRFRPPRLPRPRPRPCESPRP, the “shrunken log2 fold change” value is 0.00749. For RRIRLRPPRLPRPRPRPPEEPRP the value was 0.0505; for RRIRFRPPRLPRPRPRPNHYPRP, -0.62; for RRIRHRPPRLPRPRPRPMQRPRP, 0.138. RRIRFRPPRLPRPRPRPIHLPRP: the “shrunken log2 fold change” value is -0.154. In the case of RRIRCRPPRLPRPRPRPKFLPRP, the “shrunken log2 fold change” value was -0.258. For RRIRPRPPRLPRPRPRPVQFPRP the value was 0.197. Take RRIRNRPPRLPRPRPRPCQCPRP: the “shrunken log2 fold change” value was -0.00992. With RRIRTRPPRLPRPRPRPWFTPRP the figure was 0.00948; with RRIRFRPPRLPRPRPRPYKTPRP, -0.166.

In the case of RRIRNRPPRLPRPRPRPDSLPRP, the “shrunken log2 fold change” value is 0.0321. Turning to RRIRFRPPRLPRPRPRPWTKPRP, the “shrunken log2 fold change” value worked out at 0.0163. Consider RRIRWRPPRLPRPRPRPKATPRP, for which the “shrunken log2 fold change” value came to 0.264. For RRIRCRPPRLPRPRPRPFPEPRP the value was -0.312.

In the case of RRIRTRPPRLPRPRPRPNMPPRP, the “shrunken log2 fold change” value is -0.0405. For RRIRSRPPRLPRPRPRPCGTPRP the value was 0.202; for RRIRVRPPRLPRPRPRPCNNPRP, 0.0786.

Take RRIRRRPPRLPRPRPRPLYYPRP: the “shrunken log2 fold change” value was -0.259. For RRIRERPPRLPRPRPRPEKPPRP the value was 3.84; for RRIRRRPPRLPRPRPRPIKRPRP, 0.156. With RRIRMRPPRLPRPRPRPCASPRP the figure was 0.0954; with RRIRTRPPRLPRPRPRPQQRPRP, -0.0699; with RRIRFRPPRLPRPRPRPTFAPRP, 0.0698. With RRIRKRPPRLPRPRPRPFKLPRP, the “shrunken log2 fold change” value was 0.0306. With RRIRARPPRLPRPRPRPRVGPRP the figure was 0.352; with RRIRDRPPRLPRPRPRPETYPRP, 0.217; with RRIRHRPPRLPRPRPRPCRGPRP, 0.00172. For RRIRPRPPRLPRPRPRPWVAPRP the value was 0.014; for RRIRCRPPRLPRPRPRPTQEPRP, 0.121. In the case of RRIRARPPRLPRPRPRPIRHPRP, the “shrunken log2 fold change” value is -0.0279.

As to RRIRSRPPRLPRPRPRPRKWPRP, the “shrunken log2 fold change” value was 0.139. For RRIRMRPPRLPRPRPRPRWKPRP the value was 0.214; for RRIRLRPPRLPRPRPRPYDIPRP, 0.00601.

As to RRIRRRPPRLPRPRPRPNFLPRP, the “shrunken log2 fold change” value was 0.0376. With RRIRCRPPRLPRPRPRPQGMPRP the figure was 0.00583.
